# Experimental data: the DeepSol protein solubility set
# Test: soluble on expression in E. coli; label from the status in PepcDB or PDB records
row,Sequence,soluble on expression in E. coli
1,GHHHHHHAIAENLYFQSHGHGGYDSDFSDDEHCGESSKRKKRTVEDDLLLQKPFQKEKHGKVAHKQVAAELLDREEARNRRFHLIAMDAYQRHRKFVNDYILYYGGKKEDFKRLGENDKTDLDVIRENHRFLWNEEDEMDMTWEKRLAKKYYDKLFKEYCIADLSKYKENKFGFRWRVEKEVISGKGQFFCGNKYCDKKEGLKSWEVNFGYIEHGEKRNALVKLRLCQECSIKLNFHHRRKEIKSKKRKDKTKKDCEESSHKKSRLSSAEEASKKKDKGHSSSKKSEDSLLRNSDEEESASESELWKGPLPETDEKSQEEEFDEYFQDLFL,soluble
2,MGSDKIHHHHHHMLKIELLESFIAVAECGNMSKAADKVCRTQSTLSLQIKKLEEVVGQSLLLRDNKGTTLTESGSTLLNYAYKMMQLNSQAIHDLKDCQNREIIRLGVPTDYIKFYLNSCLLEFIREFTCIELVIDTDVSGNLFKRLQQGEFDLIVATHWQAPVNGELLFSRRFHWAAAKNGQAHKRSTVPMALYPENCPIRAQVFANHQLSMRPINVLLSTPSPQALCMAVENDLAIAPIAEFRTNEHMQILDPHEHGLPPLPIFNESLYLNPETQTEATMQLITLIKANVEHLSDTID,not soluble
3,MAHHHHHHMDTHALLALAQSAVDAGNVKAACEFYEVALAQSPNNDEVLEAYAEVMIHYAQDIPRAQQMLRHAIDINPNQGYVKYLNLAQLCEAEEALKCYEKAYEIASLMLHGCRKKKMKKTLQETMATMCCAVAELYLTDLCFAENAEQQCEQAVNRALELNSDLVEPHQLQASLRLSQCRPDEALQSLRRAVDATHRLGEEHQPTYESKIELGRLLMQVDPAEAFQFLLEVLQYGDNNPYVWFLLGESARMRRRYADAARLLRRARVMLVVSGGDATALSEVDAAINVLVQEMGGPEEAAQVKDLDHPYPLELLEAEDDEGAEEDGEDDLEEPEREPCDDEDDA,not soluble
4,MGHHHHHHSHMGYIYIVSFGDVEDRLLLADASNVKEIFDLEVRVSTVKADIEEAYNPQRNQYHAGTILSYLSRVVYPDMVRLVALVSFDLYEEGLNFVFGEAQYGGKYAVVSTYRLYHPDERVFFERVFKETNHELGHTFGLKHCPDPYCVMSFSNSIDEVDRKSRDFCPNCRRKLDYVLSYYR,not soluble
5,MASLAAVVRALLRRESQRATGYALREWTMLTARHLPYLQGQLTLGRIAAVGHLQRSTLGRSEWHTSSAPLFGEGRGRWHWGLSTSDVVDGSDHEHHSTETGGRELPSFKTGELGSDVDGDRAALEAWLAQIRDETSGWPELSLDALRDELDEELEGDDDDNDDDDDETYENEELLKALQEAVNRHRTPVVALVSGRVVHLRRTAAPKRSPRAGRVPRNEPQTTSRDTTKADANDNECT,soluble
6,MGSDKIHHHHHHMVKTSQLPAVDRTVPLEQISQFAEKVTIFTDELRETILAPRPRKTAPIFKTGEIAEMCNISHSQVQYLATKGDGELPPGTAAGTGRTRTFTLQEARTWVQKVSDIYQTPLVTGTREPEGKIIITAQLKGGSAKTTTTMCLAQGLTLRGRKVLVVDLDPQASLSELCGLYAEKDVSPEDSVLPYIYDQQIEGGLQSRVQSTYWDGLDLIPAHTELIGAEFHLPAMQKIKPGFRFWTVLREGLEPLRKHYDYILMDTSPSLSYMNLNALLAADAMVMPMVPENLDFISSLSFWRLFSDVSKSFIKYEADKKYDFVSLLLSRVDYGRTSSAPIVRAWAQSAYESWLHSIEVPASSVMSTGALAFSTVFDVSSTHSAAKSLQRVRQPIVDYCRWLDEIYAEKWRSAQ,not soluble
7,MGSDKIHHHHHHMVEKLKPRYSVVWTNKIAEVPQNAWNALAMPLKTPFLEWEWLNNLETSQSATAKTGWLPNHLTLWRDRTLIAAAPLYLKGHSSGEFVFDHQWAELADRIGVQYYPKLLGMTPFTPAEGYRFLIAPGEDEDEITAMMVHEIDTFCSKNRISGCHFLYVDPQWRPMLERHGFTTWLHHSYVWENAGFKTFDDYLKVFNANQRRNIKRERKAVEKAGLRLQPLSGDEIPYSLFPSMYQFYADTCDKFGWWGSKYLTQRFFEQLHNDYRHRVLFVAAYSEEDNSHPLGMSFCLFKGDKLYGRYWGSFQEIDCLHFDACYYAPIEWAIANGIQIFDPGAGGRHKKRRGFPAMPNHSLHRFYNNRLGQIIRPYIKEVNQLEQQEIEAINAELPFSNRDS,not soluble
8,IEPEFIGNENYKNLIVSWGTTYYPIKDALEELNLKDTAFIHFSQIYPISESGEKYLKKAEKVVNIELNYTGQLGRLLKREFGIEMNDSILKYDGRVFSVEELSEKIKKVLRG,not soluble
9,MDARPVHPAFQVFTDALRQRFGEALDAVVLYGSCLHTSDLTEGIADFYVLVSDYRLAYSGRLLAGLNAWLPPNVFYLEVPAAAGVMRAKYAVISTADFERGARQWFHPYIWARFAQPARLLYARDDQTGKRVHTAQASAVLKFISTTLPVLESGPSDLEMIWASGLMLTYAAELRAEREARARHLVRIDPEIYSRLTAAAMPALIPLLSLQADGRYHIGPITPLKRLSARIHWRLRRWQGRVLSVLRLSKATMTFRDCLDYAAWKIERHTGIKVEITPMLRRHPILWGYKVMWQLLRRGVLRLEHHHHHH,soluble
10,HEGVHRKPSLLAHPGPLVKSEETVILQCWSDVRFQHFLLHREGKFKDTLHLIGEHHDGVSKANFSIGPMMQDLAGTYRCYGSVTHSPYQLSAPSDPLDIVITGLYEKPSLSAQPGPTVLAGESVTLSCSSRSSYDMYHLSREGEAHERRFSAGPKVNGTFQADFPLGPATHGGTYRCFGSFRDSPYEWSNSSDPLLVSVTGNPSNSWPSPTEPSSETGNPRHLHAAAEQKLISEEDLNLDLVPRGSSSHHHHHHSSG,soluble
11,MGSDKIHHHHHHMQDLLSQDEIDALLHGVDDGDIDTYEETDDTGVKNYDLASQDRIVRGRMPTLEMINERFARYTRISLFNLLRRNADVSTGGVQIMKFGEYIHTLYVPTSLNLCKVRPLRGTSLFVLDAKLVFKLVDNFFGGEGRHAKIEGREFTPTETRIVQMVLNQVFHDMKEAWHAVLQVEFEYLSSEVNPAMANIVSPSEVVVVSTFHIELDGGGGELHFALPYSMIEPIRDVLDAGVQSDIDDVDERWVNALQEDIKEVNVPINTTVCRRRISLRDIARMKAGDVIPVEIPEHLTVTANGIPIYKATLGTRDGKLALRIHDRAKLPKVKKQLKVGRNG,not soluble
12,MAHHHHHHMWLNDFFAMELDGRAAMDANWGVLLAAFFRGPKKYIRDAGVLGEMQASDRYKMMERAVRDEMDMEEDVSRLYNNGMYELLRWLVATAEVTASAHEVTKSFLDAAAEEARNPTTTSAPRYLEGCYESVYNARWNHVVEVPGGEGTGLEVREGEPPQSWTYRAVGRTLEKDDGVQQFGATRPVLMVLTSDKGWPYSRNTIQDLPKDVFVNCEVDRVWQIVKGDLTAWFSTDGGTDFRPERRVLIGTPGIGKLVAAGSYLLYQLLHYDLEKIQVVVHCFGGGDAYVSDKTTRAATRYGDEDMCISELRSLRGHGRNVYIIYDVAKEGTPPPRHFAPTSGWGMIAVSFPKVTNYDEWAKQLQAARIIVNCPD,not soluble
13,MLRITELKLPIDHPEEDLRVALLQHLGIDSSELLDFTLFKRSYDARKKSSELCFIYTIDFQVKDEAALLRKLANDRHVGPAPDVSYKVVGHAPEGLSERPIVVGFGPCGIFAGLLLAQMGFKPIILERGTEVRQRTKDTWALWRKNVLNAESNVQFGEGGAGTFSDGKLYSQIKDPKFIGRKVLHEFVKAGAPEEILYVSKPHIGTFRLTGVVENMRHQIEALGGEVRFQQRVTDLMIEDGQLLGVQLDSGEQIESRHVILALGHSARDTFRMLHGRGVFMEAKPFSVGFRIEHPQSLIDRARLGKYAGHPKLGAADYKLVHHASNGRSVYSFCMCPGGTVVAATSEPGRVVTNGMSQYSRNERNANSGIVVGISPEQDFPGSPLAGIELQERLESHAYLLGGSNYEAPAQLVGDFIAGRASTALGSVEPSYKPGVKLVDLAEALPAFAIEAIREALPAFDKQIKGFSLHDAVLTGIETRTSAPLRITRGPTMQSLNTKGLYPAGEGAGYAGGILSAGVDGIRVAEALVRDMLGIEGLEHHHHHH,soluble
14,MNVYNKADSFSLESDSIKDVIHDYICWLSMTDETRPSIGNVFTAMETFKIDAVRYYDGNIYDLAKDINTMSFDSFIRSLQNITSKKDKLTVYGTMGLLSIVVDINKGRDVSNIKFAAGIIILMEYIFDDTDLSHLKIALYRRIQRRYPIDDDR,not soluble
15,MAKEFLIELGTEELPPTQLRTLAEAFAANFEAELKGAELAHEGVKWFAAPRRLALKVAALAESQSDKVVEKRGPAVSAAFDAEGNPTKAAQGWARGCGITVDQADRMVTDKGEWLLFKQEVKGQPTSEIVVELAAKALANLPIAKPMRWGNKTTQFIRPVKTLTMLMGSDLIEGEILGVASSRTIRGHRFMGEKEFTIDSAEQYPAILEERGKVMADYEARKAIILADAQKAAAAVGGIADLEDDLVEEVTSLVEWPVVLTAKFEEEFLKVPSEALVYTMKGDQKYFPVYDENKKLLPNFIFVSNIESKEPRYVIEGNEKVVRPRLADAEFFFNTDRKRPLIDRLPELEQAIFQQQLGTIKDKTDRITELAGYIAEQIGADVEKSKRAGLLAKCDLMTSMVFEFTDTQGVMGMHYARHDGEAEEVAVALNEQYMPRFAGDELPSNGVSTAVAMADKLDTIVGIFGIGQAPKGSDPFALRRASLGVLRIIVEYGYNLDLVDLVAKAKSLFGDRLTNDNVEQDVIEFMLGRFRAWYQDEGFSVDIIQAVLARRPTK,not soluble
16,MKRQLILEDGTVLIGTGFGGEIEKSGEVVFTTGMTGYQETLSDPSYCGQIVTFTYPLIGNYGINRDDFESIHPSVNGLIVNEICDHPSNFRNEISLNDYLKERNIPGLAGIDTRKLTRKIRQYGTLRGRLCNMDADVEYIVSQLKATVFTDHVKRVSTKDPYPSPGRGHRVVLVDFGMKHGILRELNKRDCDVIVVPYNTTAEEILRLSPDGIMLSNGPGDPKDVPEAIEMLKDIIGKVPLFGICLGHQLFALASGANTSKLKFGHRGLNHPVKNIATGKVAITSQNHGYAVEEESVENTELEITHVALNDGTVEGLRHKKFPAFTVQYHPEASAGPEDANDLFEDFLTMIENFKKEGEELCQNA,not soluble
17,MSLTDLDRVGLPVFQAVRPMGRSLSVSQGKGMTSMAARVSAMMEAVEIWHAEQDLPTTLRATIRSLGTRRAMDPNQLLMPGRDKVCEDLPIVWCPSLNLLDGADVLVPRDAANLDFTRAPDPPMLARSTTGLAGGNTRDEARASAIAEVIERACQREFQRLPPASRAQRRLDPTCLASAHRGLADPIERIRSAGLHLDIFDMTNRFDVPAIRAVIYETTAGKPVAWPCLGHGAHLDPVTAVVRALTEAAQARLTGISGNRDDISPGHYAGADMSNWVLRAMNGMDMSGTRRGLRHHDASGDSPAADVAAMIARITAHDADPLLEVDLSRPEIGVPVVKIIAPRIAYLASREGHHHHHH,not soluble
18,AAKGTAETKQEKSFVDWLLGKITKEDQFYETDPILRGGDVKSSGSTSGKKGGTTSGKKGTVSIPSKKKNGNGGVFGGLFAKKD,soluble
19,MAGDPMLLTGTLKREAGNKMGQKPKIAIFGGGTGLSVLLRGLKHKPVDITAIVTVADDGGSSGRLRNELKIPPPGDIRNVLAALSDVEPLVEDLFQHRFNKGNDLTGHSLGNLILAAMTNITGDFFHAVTEMSKVLNVRGKVLPAANASVVLHAEMEDGRVVSGESTIPEYGQRIKRVFLTPEQIDPLPETIDVIREADLIIIGPGSLYTSILPNLLVPKIGEEVIKAPAKKVYICNVMTQPGETLHYTAADHVKALNQHMGCGFIDTILVNSEDIPDEIKRKYEMESARPVDFDIEELKAMGLEVIRDQIVTYKNDVIRHDTHKVASLLVDLLKELEHHHHHH,soluble
20,MSLHGVPFGTVPPMGTIGLIAAMPDEIRPFLRLASPAARLHGGRFPIWRLRVGNDDIVLVESGMGIDRATAATDALVAAASPVAILSFGFGGAALPGLKVGDLAVGMTSWFAGTEGIVLRRGIDRNLAEKLAEELNRICNGVTRGEIITSARILKKGDLAHSLPNGISSPILDMETAAVAEAAHRRGIPIVALRAISDDAEEELSFSLDEFTDDDMAIRPRKVLATIARKEGHHHHHH,soluble
